Data from the supplement of paper PMC11246515.
± gives the standard deviation of the averaged measurements.

Assay: total protein half-life in vivo (active degradation + dilution); higher = more stable protein
[1] = E. coli NCM3722 delta-clpP delta-lon delta-hslV, growth: N-lim chemostat, doubling time 6 h
[2] = E. coli NCM3722 delta-clpP, growth: N-lim chemostat, doubling time 6 h
[3] = E. coli NCM3722 delta-hslV, growth: N-lim chemostat, doubling time 6 h
[4] = E. coli NCM3722 delta-lon, growth: N-lim chemostat, doubling time 6 h
[5] = E. coli NCM3722 delta-smpB, growth: N-lim chemostat, doubling time 6 h
[6] = wild type E. coli NCM3722, growth: C-lim chemostat, doubling time 3 h
[7] = wild type E. coli NCM3722, growth: C-lim chemostat, doubling time 6 h
[8] = wild type E. coli NCM3722, growth: C-lim chemostat, doubling time 12 h
[9] = wild type E. coli NCM3722, growth: N-lim chemostat, doubling time 6 h
[10] = wild type E. coli NCM3722, growth: N-lim chemostat, doubling time 12 h
[11] = wild type E. coli NCM3722, growth: P-lim chemostat, doubling time 6 h
[12] = wild type E. coli NCM3722, growth: P-lim chemostat, doubling time 12 h

| Sequence | total protein half-life in vivo [1] | total protein half-life in vivo [2] | total protein half-life in vivo [3] | total protein half-life in vivo [4] | total protein half-life in vivo [5] | total protein half-life in vivo [6] | total protein half-life in vivo [7] | total protein half-life in vivo [8] | total protein half-life in vivo [9] | total protein half-life in vivo [10] | total protein half-life in vivo [11] | total protein half-life in vivo [12] |
| --- | --- | --- | --- | --- | --- | --- | --- | --- | --- | --- | --- | --- |
| MITIDGNGAVASVAFRTSEVIAIYPITPSSTMAEQADAWAGNGLKNVWGDTPRVVEMQSEAGAIATVHGALQTGALSTSFTSSQGLLLMIPTLYKLAGELTPFVLHVAARTVATHALSIFGDHSDVMAVRQTGCAMLCAANVQEAQDFALISQIATLKSRVPFIHFFDGFRTSHEINKIVPLADDTILDLMPQVEIDAHRARALNPEHPVIRGTSANPDTYFQSREATNPWYNAVYDHVEQAMNDFSAATGRQYQPFEYYGHPQAERVIILMGSAIGTCEEVVDELLTRGEKVGVLKVRLYRPFSAKHLLQALPGSVRSVAVLDRTKEPGAQAEPLYLDVMTALAEAFNNGERETLPRVIGGRYGLSSKEFGPDCVLAVFAELNAAKPKARFTVGIYDDVTNLSLPLPENTLPNSAKLEALFYGLGSDGSVSATKNNIKIIGNSTPWYAQGYFVYDSKKAGGLTVSHLRVSEQPIRSAYLISQADFVGCHQLQFIDKYQMAERLKPGGIFLLNTPYSADEVWSRLPQEVQAVLNQKKARFYVINAAKIARECGLAARINTVMQMAFFHLTQILPGDSALAELQGAIAKSYSSKGQDLVERNWQALALARESVEEVPLQPVNPHSANRPPVVSDAAPDFVKTVTAAMLAGLGDALPVSALPPDGTWPMGTTRWEKRNIAEEIPIWKEELCTQCNHCVAACPHSAIRAKVVPPEAMENAPASLHSLDVKSRDMRGQKYVLQVAPEDCTGCNLCVEVCPAKDRQNPEIKAINMMSRLEHVEEEKINYDFFLNLPEIDRSKLERIDIRTSQLITPLFEYSGACSGCGETPYIKLLTQLYGDRMLIANATGCSSIYGGNLPSTPYTTDANGRGPAWANSLFEDNAEFGLGFRLTVDQHRVRVLRLLDQFADKIPAELLTALKSDATPEVRREQVAALRQQLNDVAEAHELLRDADALVEKSIWLIGGDGWAYDIGFGGLDHVLSLTENVNILVLDTQCYSNTGGQASKATPLGAVTKFGEHGKRKARKDLGVSMMMYGHVYVAQISLGAQLNQTVKAIQEAEAYPGPSLIIAYSPCEEHGYDLALSHDQMRQLTATGFWPLYRFDPRRADEGKLPLALDSRPPSEAPEETLLHEQRFRRLNSQQPEVAEQLWKDAAADLQKRYDFLAQMAGKAEKSNTD | 4.62 ± 0.54 h | 3.16 ± 0.26 h | 2.72 ± 0.21 h | 2.87 ± 0.075 h | 2.17 ± 0.18 h | 2.14 ± 0.34 h | 3.35 ± 0.38 h | 5.06 ± 0.26 h | 2.57 ± 0.12 h | 3.64 ± 0.31 h | 3.77 ± 0.17 h | 6.3 ± 0.33 h |
| MLHTANPVIKHKAGLLNLAEELSNVSKACKIMGVSRDTFYRYRELVAEGGVDAQINRSRRAPNLKNRTDEATEQAVVDYAVAFPTHGQHRASNELRKQGVFISDSGVRSVWLLHNLENLKRRY | 5.09 ± 0.95 h | – | – | – | – | – | – | – | – | – | – | – |
| MANLLNKFIMTRILAAITLLLSIVLTILVTIFCSVPIIIAGIVKLLLPVPVIWRKVSRFCDFMMYCWCEGLAVLLHLNPHLQWEVHGLEGLSKKNWYLLICNHRSWADIVVLCVLFRKHIPMNKYFLKQQLAWVPFLGLACWSLDMPFMKRYSRAYLLRHPERRGKDVETTRRSCEKFRLHPTTIVNFVEGSRFTQEKHQQTHSTFQNLLPPKAAGIAMALNVLGKQFDKLLNVTLCYPDNNRQPFFDMLSGKLTRIVVHVDLQPIADELHGDYINDKSFKRHFQQWLNSLWQEKDRLLTSLMSSQRQNK | – | 6.87 h | – | – | – | – | 6.03 h | – | – | 10.5 h | – | 13.6 h |
| MSIEIANIKKSFGRTQVLNDISLDIPSGQMVALLGPSGSGKTTLLRIIAGLEHQTSGHIRFHGTDVSRLHARDRKVGFVFQHYALFRHMTVFDNIAFGLTVLPRRERPNAAAIKAKVTKLLEMVQLAHLADRYPAQLSGGQKQRVALARALAVEPQILLLDEPFGALDAQVRKELRRWLRQLHEELKFTSVFVTHDQEEATEVADRVVVMSQGNIEQADAPDQVWREPATRFVLEFMGEVNRLQGTIRGGQFHVGAHRWPLGYTPAYQGPVDLFLRPWEVDISRRTSLDSPLPVQVLEASPKGHYTQLVVQPLGWYNEPLTVVMHGDDAPQRGERLFVGLQHARLYNGDERIETRDEELALAQSA | 6.63 ± 1.7 h | 5.04 ± 1.5 h | 2.09 ± 0.0062 h | 2.01 ± 0.088 h | 2.01 ± 0.032 h | 2.4 ± 1.4 h | 3.58 ± 2.8 h | 2.68 ± 0.037 h | 2.08 ± 0.11 h | 2.85 ± 0.09 h | 2.65 ± 0.42 h | 4.77 ± 0.37 h |
| MPELPEVETSRRGIEPHLVGATILHAVVRNGRLRWPVSEEIYRLSDQPVLSVQRRAKYLLLELPEGWIIIHLGMSGSLRILPEELPPEKHDHVDLVMSNGKVLRYTDPRRFGAWLWTKELEGHNVLTHLGPEPLSDDFNGEYLHQKCAKKKTAIKPWLMDNKLVVGVGNIYASESLFAAGIHPDRLASSLSLAECELLARVIKAVLLRSIEQGGTTLKDFLQSDGKPGYFAQELQVYGRKGEPCRVCGTPIVATKHAQRATFYCRQCQK | 6.1 ± 0.54 h | 6.39 ± 0.79 h | 6.03 h | 6.39 ± 1.2 h | 5.63 ± 0.36 h | 2.58 ± 0.11 h | – | 12.7 ± 2.8 h | 6.31 ± 0.42 h | 12.8 ± 1.4 h | 6.46 ± 0.51 h | 14.2 ± 0.28 h |
| MNIVITGGTGLIGRHLIPRLLELGHQITVVTRNPQKASSVLGPRVTLWQGLADQSNLNGVDAVINLAGEPIADKRWTHEQKERLCQSRWNITQKLVDLINASDTPPSVLISGSATGYYGDLGEVVVTEEEPPHNEFTHKLCARWEEIACRAQSDKTRVCLLRTGVVLAPDGGILGKMLPPFRLGLGGPIGSGRQYLAWIHIDDMVNGILWLLDNELRGPFNMVSPYPVRNEQFAHALGHALHRPAILRVPATAIRLLMGESSVLVLGGQRALPKRLEEAGFAFRWYDLEEALADVVR | 7.07 ± 0.37 h | 6.1 ± 0.14 h | 6.36 ± 0.6 h | 5.86 ± 0.6 h | 5.71 ± 0.17 h | 3.25 ± 0.15 h | 5.86 ± 0.16 h | 11.09 ± 0.052 h | 5.76 ± 0.032 h | – | 5.931 ± 0.026 h | 12.38 ± 0.057 h |
| MPRLLTKRGCWITLAAAPFLLFLAAWGADKLWPLPLHEVNPARVVVAQDGTPLWRFADADGIWRYPVTIEDVSPRYLEALINYEDRWFWKHPGVNPFSVARAAWQDLTSGRVISGGSTLTMQVARLLDPHPKTFGGKIRQLWRALQLEWHLSKREILTLYLNRAPFGGTLQGIGAASWAYLGKSPANLSYSEAAMLAVLPQAPSRLRPDRWPERAEAARNKVLERMAVQGVWSREQVKESREEPIWLAPRQMPQLAPLFSRMMLGKSKSDKITTTLDAGLQRRLEELAQNWKGRLPPRSSLAMIVVDHTDMRVRGWVGSVDLNDDSRFGHVDMVNSIRSPGSVLKPFVYGLALDEGLIHPASLLQDVPRRTGDYRPGNFDSGFHGPISMSEALVRSLNLPAVQVLEAYGPKRFAAKLRNVGLPLYLPNGAAPNLSLILGGAGAKLEDMAAAYTAFARHGKAGKLRLQPDDPLLERPLMSSGAAWIIRRIMADEAQPLPDSALPRVAPLAWKTGTSYGYRDAWAIGVNARYVIGIWTGRPDGTPVVGQFGFASAVPLLNQVNNILLSRSANLPEDPRPNSVTRGVICWPGGQSLPEGDGNCRRRLATWLLDGSQPPTLLLPEQEGINGIRFPIWLDENGKRVAADCPQARQEMINVWPLPLEPWLPASERRAVRLPPASTSCPPYGHDAQLPLQLTGVRDGAIIKRLPGAAEATLPLQSSGGAGERWWFLNGEPLTERGRNVTLHLTDKGDYQLLVMDDVGQIATVKFVMQ | 5.44 h | 6.31 ± 1.1 h | 5.74 ± 0.091 h | 5.64 ± 0.55 h | 4.87 ± 1.3 h | 3.04 h | – | 11.2 h | 5.98 h | 13.92 ± 0.086 h | 6.15 ± 2 h | 9.01 ± 4 h |
